Reference: publication PMC5766984, “Correlation of structure, function and protein dynamics in GH7 cellobiohydrolases from Trichoderma atroviride, T. reesei and T. harzianum” (Biotechnology for Biofuels, 2018)

Columns and labels:
TatCel7A = molecular target: T1, TatCel7A (Trichoderma atroviride, UniProt G9NTY1); test: competitive (product) inhibition of pNP-Lac hydrolysis, pH […] °C; assay type: biochemical
T1 construct: gene TRIATDRAFT_88458

ThaCel7A = molecular target: T2, ThaCel7A (Trichoderma harzianum, UniProt Q9P8P3); test: as above; assay type: biochemical
T2 construct: gene cbh1
T2 sequence (Q9P8P3 18-443): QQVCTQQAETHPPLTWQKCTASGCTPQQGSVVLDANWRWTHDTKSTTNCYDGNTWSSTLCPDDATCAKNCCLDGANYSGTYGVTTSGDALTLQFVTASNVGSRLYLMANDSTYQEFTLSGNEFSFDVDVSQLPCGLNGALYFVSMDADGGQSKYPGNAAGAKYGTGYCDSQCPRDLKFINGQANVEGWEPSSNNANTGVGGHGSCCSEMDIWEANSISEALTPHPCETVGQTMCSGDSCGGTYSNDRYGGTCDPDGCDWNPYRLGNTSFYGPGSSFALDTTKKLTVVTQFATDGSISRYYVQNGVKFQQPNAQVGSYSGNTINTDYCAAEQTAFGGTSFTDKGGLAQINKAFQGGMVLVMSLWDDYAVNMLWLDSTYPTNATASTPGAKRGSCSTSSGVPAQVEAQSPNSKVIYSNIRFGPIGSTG

TreCel7A = molecular target: T3, TreCel7A (Trichoderma reesei, UniProt P62694); test: as above; assay type: biochemical
T3 construct: gene cbh1
T3 sequence (P62694 18-451): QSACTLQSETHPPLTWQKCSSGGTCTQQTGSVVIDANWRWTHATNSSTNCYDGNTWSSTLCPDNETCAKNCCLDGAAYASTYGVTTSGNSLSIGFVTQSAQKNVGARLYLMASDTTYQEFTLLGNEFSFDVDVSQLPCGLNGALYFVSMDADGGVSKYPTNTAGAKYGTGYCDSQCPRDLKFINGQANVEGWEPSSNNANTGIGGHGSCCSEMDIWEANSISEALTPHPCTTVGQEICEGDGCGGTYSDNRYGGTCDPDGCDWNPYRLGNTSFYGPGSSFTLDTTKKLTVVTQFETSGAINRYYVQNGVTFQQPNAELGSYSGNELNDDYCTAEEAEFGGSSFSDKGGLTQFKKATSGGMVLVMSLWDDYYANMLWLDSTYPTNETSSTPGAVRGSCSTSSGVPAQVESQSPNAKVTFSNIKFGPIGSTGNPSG

purified protein [1] = substrate: [H][C@@]1(O[C@H]2[C@H](O)[C@@H](O)[C@H](Oc3ccc([N+](=O)[O-])cc3)O[C@@H]2CO)O[C@H](CO)[C@H](O)[C@H](O)[C@H]1O; test: purified protein; assay type: biochemical, Trichoderma reesei; settings: subsites (−[…]/−[…]/+[…]) where pNP-Lac should bind for hydrolysis; pH 4.5; 30.0 °C
purified protein [2] = substrate: [H][C@@]1(O[C@H]2[C@H](O)[C@@H](O)[C@H](Oc3ccc([N+](=O)[O-])cc3)O[C@@H]2CO)O[C@H](CO)[C@H](O)[C@H](O)[C@H]1O; test: purified protein; assay type: biochemical, Trichoderma harzianum; settings: subsites (−[…]/−[…]/+[…]) where pNP-Lac should bind for hydrolysis; pH 4.5; 30.0 °C
purified protein [3] = substrate: [H][C@@]1(O[C@H]2[C@H](O)[C@@H](O)[C@H](Oc3ccc([N+](=O)[O-])cc3)O[C@@H]2CO)O[C@H](CO)[C@H](O)[C@H](O)[C@H]1O; test: purified protein; assay type: biochemical, Trichoderma atroviride; settings: subsites (−[…]/−[…]/+[…]) where pNP-Lac should bind for hydrolysis; pH 4.5; 30.0 °C

In the case of `OC[C@H]1O[C@@H](O[C@H]2[C@H](O)[C@@H](O)C(O)O[C@@H]2CO)[C@H](O)[C@@H](O)[C@@H]1O` (stereo partly drawn) [cellobiose], the Ki (TatCel7A) is reported as 72 µM, the Ki (ThaCel7A) is reported as 49 µM and the Ki (TreCel7A) is reported as 24 µM.

B1: TreCel7A (Trichoderma reesei) (protein)
chain: T3 sequence (P62694 18-451)
With B1 the Km (purified protein [1]) was 720 µM, the kcat (purified protein [1]) was 0.057 s⁻¹ and the kcat/Km (purified protein [1]) was 79 M⁻¹ s⁻¹.

B2: ThaCel7A (Trichoderma harzianum) (protein)
chain: T2 sequence (Q9P8P3 18-443)
Molecule B2 has a Km (purified protein [2]) of 900 µM, a kcat (purified protein [2]) of 0.067 s⁻¹ and a kcat/Km (purified protein [2]) of 75 M⁻¹ s⁻¹.

B3: TatCel7A (Trichoderma atroviride IMI 206040) (protein)
chain: QQVCTTQAETHPALSWSKCTSGGSCTTQAGKVVLDANWRWTHAYPSGNNCYNGNTWDATLCPDDATCAKNCCLEGADYSGTYGVTTSGNQLTIDFVTQSANKNVGARLYLMASDTAYEEFTLLNNEFSFDVDVSALPCGLNGALYFVSMDADGGASKYPTNLAGAKYGTGYCDSQCPRDLKFISGQANVEGWQPSSNNANTGIGGHGSCCSEMDIWEANSISQALTPHPCETVGQVTCSGDDCGGTYSNNRYGGTCDPDGCDWNPYRLGNHTFYGPGSGFTVDTTKKITVVTQFSSTGINRYYVQNGVKFVQPNASGLSGYTGNTINSAYCSAEQTAFGGTSFTDKGGLTQMNKALSGGMVLVLSLWDDYAANMLWLDSTYPTNDTASTPGAARGTCSTSSGVPATVEQQSPNSKVVFSNIKFGPIGSTG
B3 was tested, and the Km (purified protein [3]) was 1000 µM, the kcat (purified protein [3]) was 0.019 s⁻¹ and the kcat/Km (purified protein [3]) was 19 M⁻¹ s⁻¹.
